Assay results from patent publication US11786477B2, “Fibrin particles and methods of making the same” (NORTH CAROLINA STATE UNIVERSITY, priority 2017, dated 2023).

Key:
Human dermal fibroblasts = experiment: In vitro 3D collagen gel wound model, cell migration into biopsied wound; format: cell-based; details: 3D collagen gels, 20 μl sample into biopsied region, compared with saline and free KGF controls
Method: Human dermal fibroblasts (500,000 cells/ml) were embedded in 3D collagen gels (3 mg/ml) in serum-free culture media. Using biopsy punches, “wounds” 2 mm in diameter were created with approximately 0.5-1 mm depth. The biopsied 3D wounds were filled with fibrin nanoparticles (FBN), FBN with attached Keratinocyte Growth Factor (FBN-KGF) or saline (controls). The number of cells migrating into the hole from the surrounding 3D collagen gel was counted every 18-24 hours. Data from each sample was normalized to its biopsy area (in mm^2). The cell migration rate was measured by counting cell numbers within the normalized biopsy area (# cells/unit area) on each day. Each treatment was compared with saline and KGF only controls. […] Bulk fibrin sealants require high concentrations of fibrinogen and thrombin in order to induce fast polymerization at the surgical/wound site; by delivering prepolymerized FBNs we are able to circumvent this issue and without inhibiting migration.

[1] = test system: epithelial dorsal dermal wounds; experiment: In vivo dermal wound healing in mice; details: C57BF/6 mice; for 3-day average dermal area closure: 4 mm biopsy punch wounds, first 3 days; for slope of linear fit of average % normalized wound area: assuming linear healing rate of the first 3 days
Method: In vivo validation that fibrin nanoparticles can assist wound healing was performed in mice. Dermal wounds were created and the rate of healing measured over several days. Two epithelial dorsal dermal wounds were created in10-week-old healthy male […]/6 mice (Charles River Faboratories Wilmington, Mass.) using a 4 mm diameter biopsy punch. The skin was excised and the inner […] was removed using surgical tools. Wound healing due to skin refolding was prevented by stitching the surrounding skin to a sterilized silicone ring. The annular silicone ring was laser cut from a silicone sheet acquired from Grace Bio-Fabs, Bend, Oreg., to a required inner diameter of 4.9 mm. The silicone ring was held in position with stationary glue and stitches. […] Each wound was immediately imaged using a handheld Nikon camera and separately treated with control 0.9% saline, bulk fibrin gel (400 (μg), FBN (20 (μg), or FBN-KGF (20 μg at the highest concentration). After treatment, the wound was covered with translucent moisture responsive catheter dressing (IV3000, Smith & Nephew, Andover, Mass.) attached over the silicone ring. The porous sheet was also laser cut to the required dimensions to aid the surgeon and to match the wound area. The wound area was imaged using a handheld Nikon camera every 24 hours after removing the translucent dressing. Image analysis of the wound was performed in ImageJ and the scale was measured using the known inner diameter of the silicone ring. The % change in wound area on each day was compared its wound area in day 0 (day of biopsy). The rate of wound healing was quantified by plotting averaged % normalized wound area for each wound treatment. The slope of a linear fit of the average % normalized wound area for the first 3 days post biopsy was calculated in Prism and 2-way Anova statistics were performed to compare the slopes of each treatment (FIG. 9).

B1: FBN-KGF: Keratinocyte growth factor covalently coupled to FBN using carbodiimide and N-hydroxysulfosuccinimide (conjugate, UniProt P21781 32-194, looked up)
Fibroblast growth factor 7: CNDMTPEQMATNVNCSSPERHTRSYDYMEGGDIRVRRLFCRTQWYLRIDKRGKVKGTQEMKNNYNIMEIRTVAVGIVAIKGVESEFYLAMNKEGKLYAKKECNEDCNFKELILENHYNTYASAKWTHNGGEMFVALNQKGIPVRGKKTKKEQKTAHFLPMAIT
modifications: coupled to FBN nanoparticles
notes: Keratinocyte growth factor covalently coupled to FBN using carbodiimide and N-hydroxysulfosuccinimide
In the case of B1, the “cell recruitment / cell migration into 3D wound” value (Human dermal fibroblasts) is reported as “significantly enhanced cell recruitment and or cell proliferation”, the “3-day average dermal area closure” value [1] is reported as 48±9% and the “slope of linear fit of average % normalized wound area” value [1] is reported as −16±3.

B2: free KGF: Keratinocyte growth factor (CYT-219, Prospec Protein Specialist) (protein, UniProt P21781 32-194, looked up)
Fibroblast growth factor 7: CNDMTPEQMATNVNCSSPERHTRSYDYMEGGDIRVRRLFCRTQWYLRIDKRGKVKGTQEMKNNYNIMEIRTVAVGIVAIKGVESEFYLAMNKEGKLYAKKECNEDCNFKELILENHYNTYASAKWTHNGGEMFVALNQKGIPVRGKKTKKEQKTAHFLPMAIT
For B2, the “3-day average dermal area closure” value [1] was 42±12% and the “slope of linear fit of average % normalized wound area” value [1] was −14±2.
